Measurements as given in patent publication US20110207796A1, “ALPHA-SYNUCLEIN KINASE” (Elan Pharma International Limited, priority 2008, published 2011).

Tested on: synuclein phosphorylation
Test: overexpression of PLK family members with WT-synuclein in HEK-293 cells, phospho-synuclein ELISA
Type: cell-based, human
Settings: for Proportion of total synuclein that is phoshorylated at ser-129: 48 hours post-transfection, with WT-synuclein; for Fold Change in Percent Synuclein Phosphorylation: relative to endogenous kinase (2.0%)
Method: HEK-293 naïve cells were transfected with an expression vector encoding PLK1, PLK2, PLK3, or PLK4 under the control of a CMV promoter, or empty vector, together with an expression vector encoding WT-synuclein. All vectors had the sequence coding for the protein of interest. Transfection was accomplished using Lipofectamine 2000 (Invitrogen, Carlsbad, Calif.) with 0.08 μg vector. Cells were washed and harvested 48 hours post-transfection. A Micro BCA (Pierce) total protein assay and total synuclein and phospho-synuclein ELISAs were performed on each plate of treated cells.

B1: Over-Expressed PLK3 (protein, UniProt Q9H4B4 1-646, looked up)
Serine/threonine-protein …: MEPAAGFLSPRPFQRAAAAPAPPAGPGPPPSALRGPELEMLAGLPTSDPGRLITDPRSGRTYLKGRLLGKGGFARCYEATDTETGSAYAVKVIPQSRVAKPHQREKILNEIELHRDLQHRHIVRFSHHFEDADNIYIFLELCSRKSLAHIWKARHTLLEPEVRYYLRQILSGLKYLHQRGILHRDLKLGNFFITENMELKVGDFGLAARLEPPEQRKKTICGTPNYVAPEVLLRQGHGPEADVWSLGCVMYTLLCGSPPFETADLKETYRCIKQVHYTLPASLSLPARQLLAAILRASPRDRPSIDQILRHDFFTKGYTPDRLPISSCVTVPDLTPPNPARSLFAKVTKSLFGRKKKSKNHAQERDEVSGLVSGLMRTSVGHQDARPEAPAASGPAPVSLVETAPEDSSPRGTLASSGDGFEEGLTVATVVESALCALRNCIAFMPPAEQNPAPLAQPEPLVWVSKWVDYSNKFGFGYQLSSRRVAVLFNDGTHMALSANRKTVHYNPTSTKHFSFSVGAVPRALQPQLGILRYFASYMEQHLMKGGDLPSVEEVEVPAPPLLLQWVKTDQALLMLFSDGTVQVNFYGDHTKLILSGWEPLLVTFVARNRSACTYLASHLRQLGCSPDLRQRLRYALRLLRDRSPA
Proportion of total synuclein that is phoshorylated at ser-129: 79.2% | Fold Change in Percent Synuclein Phosphorylation: 39.6

B2: Over-Expressed PLK2 (protein, UniProt Q9NYY3 1-685, looked up)
Serine/threonine-protein …: MELLRTITYQPAASTKMCEQALGKGCGADSKKKRPPQPPEESQPPQSQAQVPPAAPHHHHHHSHSGPEISRIIVDPTTGKRYCRGKVLGKGGFAKCYEMTDLTNNKVYAAKIIPHSRVAKPHQREKIDKEIELHRILHHKHVVQFYHYFEDKENIYILLEYCSRRSMAHILKARKVLTEPEVRYYLRQIVSGLKYLHEQEILHRDLKLGNFFINEAMELKVGDFGLAARLEPLEHRRRTICGTPNYLSPEVLNKQGHGCESDIWALGCVMYTMLLGRPPFETTNLKETYRCIREARYTMPSSLLAPAKHLIASMLSKNPEDRPSLDDIIRHDFFLQGFTPDRLSSSCCHTVPDFHLSSPAKNFFKKAAAALFGGKKDKARYIDTHNRVSKEDEDIYKLRHDLKKTSITQQPSKHRTDEELQPPTTTVARSGTPAVENKQQIGDAIRMIVRGTLGSCSSSSECLEDSTMGSVADTVARVLRGCLENMPEADCIPKEQLSTSFQWVTKWVDYSNKYGFGYQLSDHTVGVLFNNGAHMSLLPDKKTVHYYAELGQCSVFPATDAPEQFISQVTVLKYFSHYMEENLMDGGDLPSVTDIRRPRLYLLQWLKSDKALMMLFNDGTFQVNFYHDHTKIIICSQNEEYLLTYINEDRISTTFRLTTLLMSGCSSELKNRMEYALNMLLQRCN
Proportion of total synuclein that is phoshorylated at ser-129: 42.3% | Fold Change in Percent Synuclein Phosphorylation: 21.2

B3: Over-Expressed PLK4 (protein, UniProt O00444 1-970, looked up)
Serine/threonine-protein …: MATCIGEKIEDFKVGNLLGKGSFAGVYRAESIHTGLEVAIKMIDKKAMYKAGMVQRVQNEVKIHCQLKHPSILELYNYFEDSNYVYLVLEMCHNGEMNRYLKNRVKPFSENEARHFMHQIITGMLYLHSHGILHRDLTLSNLLLTRNMNIKIADFGLATQLKMPHEKHYTLCGTPNYISPEIATRSAHGLESDVWSLGCMFYTLLIGRPPFDTDTVKNTLNKVVLADYEMPSFLSIEAKDLIHQLLRRNPADRLSLSSVLDHPFMSRNSSTKSKDLGTVEDSIDSGHATISTAITASSSTSISGSLFDKRRLLIGQPLPNKMTVFPKNKSSTDFSSSGDGNSFYTQWGNQETSNSGRGRVIQDAEERPHSRYLRRAYSSDRSGTSNSQSQAKTYTMERCHSAEMLSVSKRSGGGENEERYSPTDNNANIFNFFKEKTSSSSGSFERPDNNQALSNHLCPGKTPFPFADPTPQTETVQQWFGNLQINAHLRKTTEYDSISPNRDFQGHPDLQKDTSKNAWTDTKVKKNSDASDNAHSVKQQNTMKYMTALHSKPEIIQQECVFGSDPLSEQSKTRGMEPPWGYQNRTLRSITSPLVAHRLKPIRQKTKKAVVSILDSEEVCVELVKEYASQEYVKEVLQISSDGNTITIYYPNGGRGFPLADRPPSPTDNISRYSFDNLPEKYWRKYQYASRFVQLVRSKSPKITYFTRYAKCILMENSPGADFEVWFYDGVKIHKTEDFIQVIEKTGKSYTLKSESEVNSLKEEIKMYMDHANEGHRICLALESIISEEERKTRSAPFFPIIIGRKPGSTSSPKALSPPPSVDSNYPTRERASFNRMVMHSAASPTQAPILNPSMVTNEGLGLTTTASGTDISSNSLKDCLPKSAQLLKSVFVKNVGWATQLTSGAVWVQFNDGSQLVVQAGVSSISYTSPNGQTTRYGENEKLPDYIKQKLQCLSSILLMFSNPTPNFH
Proportion of total synuclein that is phoshorylated at ser-129: 1.9% | Fold Change in Percent Synuclein Phosphorylation: 1.0
